According to the DeepSol protein solubility set:

assay: soluble on expression in E. coli; label from the status in PepcDB or PDB records

Sequence	soluble on expression in E. coli
MFKEVGEPNFPKLEEEVLAFWKREKIFQKSVENRKGGPRYTVYEGPPTANGLPHVGHAQARSYKDLFPRYKTMRGYYAPRRAGWDTHGLPVELEVEKKLGLKSKREIEAYGIERFNQACRESVFTYEKEWEAFTERIAYWVDLENAYATLEPTYIESIWWSLKNLFDRGLLYRDHKVVPYCPRCGTPLSSHEVALGYKEIQDPSVYVRFPLKEPKKLGLEKASLLIWTTTPWTLPGNVAAAVHPEYTYAAFQVGDEALILEEGLGRKLLGEGTPVLKTFPGKALEGLPYTPPYPQALEKGYFVVLADYVSQEDGTGIVHQAPAFGAEDLETARVYGLPLLKTVDEEGKLLVEPFKGLYFREANRAILRDLRGRGLLFKEESYLHSYPHCWRCSTPLMYYATESWFIKNTLFKDELIRKNQEIHWVPPHIKEGRYGEWLKNLVDWALSRNRYWGTPLPIWVCQACGKEEAIGSFQELKARATKPLPEPFDPHRPYVDQVELACACGGTMRRVPYVIDVWYDSGAMPFASLHYPFEHEEVFRESFPADFIAEGIDQTRGWFNFLHQLGVMLFGSIAFKNVICHGLILYEMGQKMSKSKGNVVDPWDIIREFGADALRWYIYVSAPPEADRRFGPNLVRETVRDYFLTLWNVYSFFVTYANLDRPDLKNPPPPEKRPEMDRWLLARMQDLIQRVTEALEAYDPTTSARALRDFVVEDLSQWYVRRNRRRFWKNEDALDREAAYATLYEALVLVATLAAPFTPFLAEVLWQNLVRSVRPEAKESVHLADWPEADPALADEALVAQMRAVLKVVDLARAARAKSGVKTRTPLPLLLVTAPTALEREGLKRFAHEIAEELNVKEVRVLEPGEEILSYRVLPNLKLLGRKYGKLVPKIREALQRERERAAALALKGEAIPLEVEGEALTLLPEEVLLEAEAPKGYQALEKDGYVAALKVEVTEALRMEGLARDLIRLLQQARKDMGLKVSDRIRVGYEAEGPYLEALKRHGPWIAEEVLATAFGEGLFGGFEARVEDEEGKAVFHLARAE	soluble
MFKLLKTFQIVYEQMNFSKAATCLYISQPAVSNQIKQLEEELGCSLFLRNGRQDVVPTRQAEVLYNRLLNLADDWQETLTALHQARLPKETCRIAASNTFAVYYLPQLMQHLQTQYATINFVLEMNNSEEVVEKVEKHQVDFGFIEKPLITKGATREEIIQDQLVLAGDPANQNWLVREKDSGVFHYTQQYLEESNQSPTLMTVKNNEMIVKMLELGMGQSLLSRKAITEKIPFQTLGEKYWRSFYFLTRGHLKSSLLQEVKQAIYRFYQTEMNKY	not soluble
MFKNLIWLKEVDSTQERLKEWNVSYGTALVADRQTKGRGRLGRKWLSQEGGLYFSFLLNPKEFENLLQLPLVLGLSVSEALEEITEIPFSLKWPNDVYFQEKKVSGVLCELSKDKLIVGIGINVNQREIPEEIKDRATTLYEITGKDWDRKEVLLKVLKRISENLKKFKEKSFKEFKGKIESKMLYLGEEVKLLGEGKITGKLVGLSEKGGALILTEEGIKEILSGEFSLRRS	soluble
MFLINGHKQESLAVSDRATQFGDGCFTTARVIDGKVSLLSAHIQRLQDACQRLMISCDFWPQLEQEMKTLAAEQQNGVLKVVISRGSGGRGYSTLNSGPATRILSVTAYPAHYDRLRNEGITLALSPVRLGRNPHLAGIKHLNRLEQVLIRSHLEQTNADEALVLDSEGWVTECCAANLFWRKGNVVYTPRLDQAGVNGIMRQFCIRLLAQSSYQLVEVQASLEESLQADEMVICNALMPVMPVCACGDVSFSSATLYEYLAPLCERPN	soluble
MFMREIELRGHIIDSLILPKVFDKILDMGGDYKVLEFEIGKRKTDPSYAKILVIGRDERHVDEILNELRDLGAEIPEIEEVELQPAEKDMVLPEGFYSTTNHKTFIRFKGKWIEVENQKMDGAIVVYPDEMRAEVKTIRNIKKGDLVVVGHKGVRVIPPEKPREGGGLFEFMKSDASSEKPKETIIRRIAKEMYEIREKYRKTGKGGIVVVGGPAIIHTGAGWALAKLIRMGYVQALFAGNALATHDIESVLYGTSLGVDLKTGKSVPGGHSHHLRAINTIMRAGSIKDAVEQGILKEGVMYECIKNNIPYVLAGSIRDDGPLPDVITDVVKAQEKMRELLKGKDMVLMLSTMLHSIATGNLLPSWVKTICVDINPAVVTKLMDRGTSQALGIVTDVGVFLPMLVEELEKLEKEKEKSEKREELEHHHHHH	soluble
MFNSKPLLTITLLAVSSVASAAEQALDAQQVAQLIEKADSYRLQDDSSKVVSLVRLYQDQELDKTRLYHVYTRPNRESLVVFKSAVEAGQKMLMMGDNYWLQMPKSRRPIRITPMQKLLGEASIGDISTLTWSQDYQGEWKATETLTINGQSIAAYRLALTAKTKGASYQKIDLWLSEQDAFPIKADLYLRSGKLAKQAQYGRATNLGKDYVSEMTLLDSIQPSKKTVIEYQEIVPWQLDNKFYNPSYLPKANTSEL	not soluble
MFQIKKAAVLGSGVMGSGIAAHLANIGIPTLLLDIVPPALTKEEEAKGLTLEHKSVRNRFSNTAVQKLLKQKPAPLTVKGNLALIEAGNLEDDLERLADVDWIIEVVVENLDIKKKLFEKVDAVRKPGSIVSSNTSGISVEKMAEGRSDDFQKHFLGTHFFNPPRYLKLLEVIPTKKTDPQVLSFMKLFGEDVLGKGVVIAKDTPNFIGNRIGTYGLLVTLQEMVKRGYSIGEVDSVTGPLIGRPKSATFRTLDVVGLDTFVYVANNVYENVQEKERDVFKVPAFMHDMLDKKWLGSKTGQGFFLKQGKEILELNPETMEYEARKKLKAASIELSKQEKGLSNKLKALVYAKDRAGELLWNIITPTLLYSAKLHKEIADDIVAIDQAMKWGFGWEQGPFEVWDAIGVEKSVQKMEESGAVIPAWVKEMLEKGFTTFYKHDNGDSYYYDNGEYKLIECNKKAISLKQLKAKNGVLKKNSGASLIDLGDGILCLEFHSKSNAIGMDITQMINYAVDEVEKNYKGLVIGNQSKNFCVGANLAMILMEAQDDNYFEIEWVVKNFQDAMMKIKYSSKPVVAAPYGMTLGGGTEVCLPAASIQASSETYMGLVEVGVGLIPGGGGNKELYIKHLNKMANGVEFDLQKVANKVFETVAMAKVLTSGQEAVSHNFLGDKDGISVNGDHLLYDAKQKALALYEAGYKAPIRKKIPVVGETGYATLALGAEAMHLSGYISEYDLHIAKKLAYVIAGGKVPYGTEVDEQYLLDVEREAFISLVSEMKSQARMQHMLVKGKPLRN	not soluble
MFQIQETIVSPDLFDKYFVCDYATCQGICCVEGESGAPLEAGEADLLRKYLDAVRDMLSSEALEVIDKQGVSYLDVEGDEVTSIVNGRDCVFTTYDEKGNCLCAFERAYRLGKIDFPKPLSCHLYPVRLTRYSSFTAVNYHRWEICRCAEALGRQMGTPLYRFLKEPLIRAFGKEWYKEMEEIAALLEQNPLKR	not soluble
MFQLLAVCPMGLEAVVAKEIQELGYDTQVENGRIFFEGDESAIVRCNLWLRTADRIKIVMGRFNATTFDELFEQTKSLPWETVIDKEGNFPVQGRSVKSTLYSVPDCQAITKKAIVERLKHAHQEKGWLSETGAKYPVEVAILKDNVLLTIDTAGSGLNKRGYRIAQGEAPIKETLAASLIRLANWNGNTPLIDPFCGSGTIAIEACLIAQNIAPGFNRDFVSEQWNMMPPNIYDKFRDEADQLADYDKDIQVYASDIDPEMIEIAKRNAEEVGLGDIIQFNVKDVNTLSIDTDKPVALVGNPPYGERIGDREEVEEMYRYIGTLLKQHPHLSAYILTSNKEFEYLVNRKATKRRKLFNGYIECTYYQYWGKKQSNKN	not soluble
MFQQLSARLQEAIGRLRGRGRITEEDLKATLREIRRALMDADVNLEVTRDFVERVREEALGKQVLESLTPAEVILATVYEALKEALGGEARLPVLKDRNLWFLVGLQGSGKTTTAAKLALYYKGKGRRPLLVAADTQRPAAREQLRLLGEKVGVPVLEVMDGESPESIRRRVEEKARLEARDLILVDTAGRLQIDEPLMGELARLKEVLGPDEVLLVLDAMTGQEALSVARAFDEKVGVTGLVLTKLDGDARGGAALSARHVTGKPIYFAGVSEKPEGLEPFYPERLAGRILGMGDVASLAEKVRAAGLEAEAPKSAKELSLEDFLKQMQNLKRLGPFSEILGLLPGVPQGLKVDEKAIKRLEAIVLSMTPEERKDPRILNGSRRKRIAKGSGTSVQEVNRFIKAFEEMKALMKSLEKKKGRGLM	soluble
MFRLRLISGFNFAPIIADAIVDLSKDFFQSDNSEVCCGQILYLAISDEEGPGKPILDSKHVEVILTLDLPEDMDVYEKFGLSAYRQHILLRITQEARDQNALLTIKDLVKLLKSSYSTIIRDLKYFREKGLYVPLRGIVKDIGPSSHKSKIVELYLKGYTTTEIQRSTRHSLQSIERYIKDFSRVSILTQKGESIDNIRLIVGISERLVKEYQELFIKYKDGDNKQRVEELIDNITVYDSPMSFKKNSGMRM	not soluble
MFSGKTSRLIELMERHILAGRKVTLFKPEIDSRYSENEVVTHKGIKLPAVIAPTDERFGEFLAARTRDSNVLGFDEAQFWKPSSRLPQHLEDLANSGRTVYVAALNRDHFGNPFRMTVDILAISDEIYTLSAVCSRCGSDAIFTQRIINGSPAFGEIIRIGGKDLYEPRCRNCFVWPSAQKRITDL	soluble
MFSKVNNQKMLEDCFYIRKKVFVEEQGVPEESEIDEYESESIHLIGYDNGQPVATARIRPINETTVKIERVAVMKSHRGQGMGRMLMQAVESLAKDEGFYVATMNAQCHAIPFYESLNFKMRGNIFLEEGIEHIEMTKKLTSLN	not soluble
MFSTKKSQGNLHKYIQRQSTDEFAVKAREHNYRARSAFKLIEINEKFKFLKPESTVIDIGCAPGSWLQVVVQKCPNGYASGVDLQNVLPIRGADILSLSDITDPAVKLKIREKLAHRQVDVVLSDMAPNPTGDNATDHLRLIELCRSVFRLFSVENEIELVKNGVYLCKIWDGSARAEFVRELSDRFSTVKTVKPTACRDNSAELYLFCRNFKK	not soluble
MFTPIDQAIEHFKQNKFVIVMDDAGRENEGDLICAAENVSTEQMAFLVRHSSGYVCAPMTNAIADKLDLPLLRTGMKFESNDDDRHGTAYTITVDVAQGTTTGISAHDRSMTCRALADSSSTPKSFLKPGHICPLRAADGGVLQRRGHTEAGVDLCKLSGLSPVAVIGELVNDDEQGTMMRLNDCQAFGKKHGIPLISIEELAQYLKK	soluble
MFTTKGIDISGELTMMGIPEQNSKTVTPGLHYAADGFRLSGGNANFIARNMASVTGNIYADDAATITLGQPETETPTISSAYQAWAETLLYGFDTAYRGAITAPKATVSMNNAIWHLNSQSSINRLETKDSMVRFTGDNGKFTTLTVDNLTIDDSAFVLRANLAQADQ	not soluble
MFTTVITPRVSETDGVGHINNTTVPVWFEAGRHEIFKLFTPDLSFKRWRMVIIRMEVDYVNQMYYGQDVTVYTGIERIGNTSLTIYEEIHQNGVVCAKGRSVYVNFNFDTGRPEPIPDDIRVKLREHVWQPGE	soluble
